Laboratory results reported in patent publication US20220411483A1 (Chugai, published 2022).
Where a chain is given by its changes, count along the chain named.

T1: FcγRIIa R type extracellular domain, His tag (human, UniProt P12318 34-217)
T1 construct: extracellular domain; also called FcgRIIaR
T1 sequence (looked up): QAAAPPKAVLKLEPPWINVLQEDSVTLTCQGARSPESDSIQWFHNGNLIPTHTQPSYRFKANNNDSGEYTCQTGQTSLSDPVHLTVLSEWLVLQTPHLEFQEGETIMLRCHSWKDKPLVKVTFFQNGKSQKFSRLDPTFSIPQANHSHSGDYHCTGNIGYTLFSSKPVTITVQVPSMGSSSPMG

T2: FcγRIIa H type extracellular domain, His tag (human, UniProt P12318 34-217)
T2 construct: extracellular domain; also called FcgRIIaH
T2 sequence (looked up): T1 sequence (looked up) with R134H

T3: FcγRIIb extracellular domain, His tag (human, UniProt P31994 43-217)
T3 construct: extracellular domain; also called FcgRIIb
T3 sequence (looked up): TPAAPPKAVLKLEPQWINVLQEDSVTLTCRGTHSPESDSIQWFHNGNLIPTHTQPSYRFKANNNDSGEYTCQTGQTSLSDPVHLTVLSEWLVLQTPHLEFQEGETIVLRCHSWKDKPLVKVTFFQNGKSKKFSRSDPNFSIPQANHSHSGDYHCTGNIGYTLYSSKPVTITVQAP

T4: FcγRIIa R type extracellular domain with C-terminal His tag (human, UniProt P12318 34-217)
T4 construct: extracellular domain; also called FcgRIIaR; not shown: His tag at the C terminus
T4 sequence (looked up): T1 sequence (looked up)

T5: FcγRIIa H type extracellular domain with C-terminal His tag (human, UniProt P12318 34-217)
T5 construct: extracellular domain; also called FcgRIIaH; not shown: His tag at the C terminus
T5 sequence (looked up): T1 sequence (looked up) with R134H

T6: FcγRIIb extracellular domain with C-terminal His tag (human, UniProt P31994 43-217)
T6 construct: extracellular domain; also called FcgRIIb; not shown: His tag at the C terminus
T6 sequence (looked up): T3 sequence (looked up)

B1: IL6R-P727/IL6R-L (antibody, human IgG1, kappa)
heavy: QVQLQESGPGLVKPSETLSLTCAVSGHSISHDHAWSWVRQPPGEGLEWIGFISYSGITNYNPSLQGRVTISRDNSKNTLYLQMNSLRAEDTAVYYCARSLARTTAMDYWGEGTLVTVSSASTKGPSVFPLAPSSKSTSGGTAALGCLVKDYFPEPVTVSWNSGALTSGVHTFPAVLQSSGLYSLSSVVTVPSSSLGTQTYICNVNHKPSNTKVDKKVEPKSCDKTHTCPPCPAPELLGQDSVMLFPPKPKDTLMISRTPEVTCVVVDVSPEDPEVKFNWYVDGVEVHNAKTKPREEQENSTYRVVSVLTVLHQDWLNGKEYKCKVSNKALPHPIEKTISKAKGQPREPQVYTLPPSRDELTKNQVSLTCLVKGFYPSDIAVEWESNGQPENNYKTTPPVLDSDGSFFLYSKLTVDKSRWQQGNVFSCSVMHEALHNHYTQKSLSLSP
light: not shown
B2: IL6R-P733/IL6R-L (antibody, human IgG1, kappa)
heavy: B1 heavy with L237F, S326H, H332A
light: not shown
B3: IL6R-P732/IL6R-L (antibody, human IgG1, kappa)
heavy: B1 heavy with L237F, Q239G, S326H, H332A
light: not shown
B4: IL6R-P731/IL6R-L (antibody, human IgG1, kappa)
heavy: B1 heavy with S326H, H332A
light: not shown
B5: IL6R-P734/IL6R-L (antibody, human IgG1, kappa)
heavy: B1 heavy with L237F, P270H, S326H
light: not shown
B6: IL6R-P737/IL6R-L (antibody, human IgG1, kappa)
heavy: B1 heavy with S326H
light: not shown
B7: IL6R-P729/IL6R-L (antibody, human IgG1, kappa)
heavy: B1 heavy with L237F, H332A
light: not shown
B8: IL6R-P728/IL6R-L (antibody, human IgG1, kappa)
heavy: B1 heavy with L237F, P270H, S326H, H332A
light: not shown
B9: IL6R-P735/IL6R-L (antibody, human IgG1, kappa)
heavy: B1 heavy with L237F
light: not shown
B10: IL6R-BP488/IL6R-L (antibody, human IgG1, kappa, name in EU numbering)
heavy: B1 heavy with E235D, Q239D, M243F, V266I, S269A, P270E, P273G, E298D, H332R, K441E
light: not shown
notes: human IgG1
B11: IL6R-BP554/IL6R-L (antibody, human IgG1, kappa, name in EU numbering)
heavy: B1 heavy with Q239D, M243F, V266I, S269A, P270E, P273G, E274D, E298Y, H332R, K441E
light: not shown
notes: human IgG1
B12: IL6R-BP487/IL6R-L (antibody, human IgG1, kappa, name in EU numbering)
heavy: QVQLQESGPGLVKPSETLSLTCAVSGHSISHDHAWSWVRQPPGEGLEWIGFISYSGITNYNPSLQGRVTISRDNSKNTLYLQMNSLRAEDTAVYYCARSLARTTAMDYWGEGTLVTVSSASTKGPSVFPLAPSSKSTSGGTAALGCLVKDYFPEPVTVSWNSGALTSGVHTFPAVLQSSGLYSLSSVVTVPSSSLGTQTYICNVNHKPSNTKVDKKVEPKSCDKTHTCPPCPAPDLLGDDSVFLFPPKPKDTLMISRTPEVTCVVIDVAEEDGEVKFNWYVDGVEVHNAKTKPREEQYNSTYRVVSVLTVLHQDWLNGKEYKCKVSNKALPRPIEKTISKAKGQPREPQVYTLPPSRDELTKNQVSLTCLVKGFYPSDIAVEWESNGQPENNYKTTPMVLDSDGSFFLYSKLTVDKSRWQQGNVFSCSVMHEALHNHYTQESLSLSP
light: not shown
notes: human IgG1
B13: IL6R-BP510/IL6R-L (antibody, human IgG1, kappa, name in EU numbering)
heavy: B12 heavy with D235E, E274P, M398P
light: not shown
notes: human IgG1
B14: IL6R-BP558/IL6R-L (antibody, human IgG1, kappa, name in EU numbering)
heavy: B12 heavy with D235E, A269G, E274D, M398P
light: not shown
notes: human IgG1
B15: IL6R-BP438/IL6R-L (antibody, human IgG1, kappa, name in EU numbering)
heavy: B12 heavy with I266V, I334T, M398P
light: not shown
notes: human IgG1

Each binder was assayed against T7, FcγRIa extracellular domain, His tag (human, UniProt P12314 16-292) (assay: SPR, KD ratio).
T7 construct: whole entry named; also called FcgRIa
T7 sequence (P12314 16-292): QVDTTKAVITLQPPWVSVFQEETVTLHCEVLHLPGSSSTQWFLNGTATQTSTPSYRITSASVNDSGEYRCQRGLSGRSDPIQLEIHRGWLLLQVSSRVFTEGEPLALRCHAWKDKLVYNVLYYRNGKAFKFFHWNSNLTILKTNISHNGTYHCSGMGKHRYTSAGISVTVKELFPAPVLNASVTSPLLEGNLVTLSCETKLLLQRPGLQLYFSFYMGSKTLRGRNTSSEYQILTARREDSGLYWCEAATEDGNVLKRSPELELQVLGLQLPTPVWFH

Row | Relative FcgRIa-binding Activity | Binder
1 | 0.0014 fold of IL6R-G1d/IL6R-L | B1
2 | 0.0001 fold of IL6R-G1d/IL6R-L | B2
3 | 0.0005 fold of IL6R-G1d/IL6R-L | B3
4 | 0.0049 fold of IL6R-G1d/IL6R-L | B4
5 | 0.0015 fold of IL6R-G1d/IL6R-L | B5
6 | 0.002 fold of IL6R-G1d/IL6R-L | B6
7 | 0.0005 fold of IL6R-G1d/IL6R-L | B7
8 | 0.0006 fold of IL6R-G1d/IL6R-L | B8
9 | 0.0013 fold of IL6R-G1d/IL6R-L | B9

Each binder was assayed against T1, FcγRIIa R type extracellular domain, … (assay: SPR, KD ratio).

Row | Relative FcgRIIaR-binding Activity | Binder
10 | 0.012 fold of IL6R-G1d/IL6R-L | B1
11 | 0.009 fold of IL6R-G1d/IL6R-L | B2
12 | 0.017 fold of IL6R-G1d/IL6R-L | B3
13 | 0.012 fold of IL6R-G1d/IL6R-L | B4
14 | 0.018 fold of IL6R-G1d/IL6R-L | B5
15 | 0.011 fold of IL6R-G1d/IL6R-L | B6
16 | 0.015 fold of IL6R-G1d/IL6R-L | B7
17 | 0.017 fold of IL6R-G1d/IL6R-L | B8
18 | 0.021 fold of IL6R-G1d/IL6R-L | B9

What follows are binders tested against T2, FcγRIIa H type extracellular domain, … (assay: SPR, KD ratio).

Row | Relative FcgRIIaH-binding Activity | Binder
19 | 0.007 fold of IL6R-G1d/IL6R-L | B1
20 | 0.006 fold of IL6R-G1d/IL6R-L | B2
21 | 0.01 fold of IL6R-G1d/IL6R-L | B3
22 | 0.007 fold of IL6R-G1d/IL6R-L | B4
23 | 0.011 fold of IL6R-G1d/IL6R-L | B5
24 | 0.006 fold of IL6R-G1d/IL6R-L | B6
25 | 0.005 fold of IL6R-G1d/IL6R-L | B7
26 | 0.012 fold of IL6R-G1d/IL6R-L | B8
27 | 0.007 fold of IL6R-G1d/IL6R-L | B9

These binders were tested against T3, FcγRIIb extracellular domain, His tag (assay: SPR, KD ratio).

Row | Relative FcgRIIb-binding Activity | Binder
28 | 1.06 fold of IL6R-G1d/IL6R-L | B1
29 | 1.09 fold of IL6R-G1d/IL6R-L | B2
30 | 1.75 fold of IL6R-G1d/IL6R-L | B3
31 | 0.499 fold of IL6R-G1d/IL6R-L | B4
32 | 2.07 fold of IL6R-G1d/IL6R-L | B5
33 | 0.802 fold of IL6R-G1d/IL6R-L | B6
34 | 1.17 fold of IL6R-G1d/IL6R-L | B7
35 | 1.31 fold of IL6R-G1d/IL6R-L | B8
36 | 2.26 fold of IL6R-G1d/IL6R-L | B9

Each binder was assayed against T8, FcγRIIIa V type extracellular domain, His tag (human, UniProt P08637 17-208) (assay: SPR, KD ratio).
T8 construct: extracellular domain; also called FcgRIIIaV
T8 sequence (P08637 17-208 F176V): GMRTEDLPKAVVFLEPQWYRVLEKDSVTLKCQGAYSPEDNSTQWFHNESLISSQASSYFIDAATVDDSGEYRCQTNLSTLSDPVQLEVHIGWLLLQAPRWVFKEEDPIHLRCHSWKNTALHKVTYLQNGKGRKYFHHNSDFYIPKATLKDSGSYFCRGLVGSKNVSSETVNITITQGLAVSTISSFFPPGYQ

Row | Relative FcgRIIIaV-binding Activity | Binder
37 | 0.005 fold of IL6R-G1d/IL6R-L | B1
38 | 0.004 fold of IL6R-G1d/IL6R-L | B2
39 | 0.004 fold of IL6R-G1d/IL6R-L | B3
40 | 0.006 fold of IL6R-G1d/IL6R-L | B4
41 | 0.003 fold of IL6R-G1d/IL6R-L | B5
42 | 0.005 fold of IL6R-G1d/IL6R-L | B6
43 | 0.006 fold of IL6R-G1d/IL6R-L | B7
44 | 0.007 fold of IL6R-G1d/IL6R-L | B8
45 | 0.005 fold of IL6R-G1d/IL6R-L | B9

The binders below were run against T9, FcγRIa extracellular domain with C-terminal His tag (human, UniProt P12314 16-292) (assay: SPR, antibody captured, FcgR analyte).
T9 construct: also called FcgRIa; CD64; not shown: His tag at the C terminus
T9 sequence (P12314 16-292): as the sequence (P12314 16-292) above

Row | Kd | Binder
46 | 2.2 nM | B10
47 | 8 nM | B11
48 | 1.2 nM | B12
49 | 6 nM | B13

What follows are binders tested against T4, FcγRIIa R type extracellular domain … (assay: SPR, antibody captured, FcgR analyte).

Row | Kd | Binder
50 | 74 nM | B10
51 | 330 nM | B14
52 | 180 nM | B15
53 | 39 nM | B12

What follows are binders tested against T5, FcγRIIa H type extracellular domain … (assay: SPR, antibody captured, FcgR analyte).

Row | Kd | Binder
54 | 1600 nM | B10
55 | 4900 nM | B14
56 | 1600 nM | B15
57 | 2300 nM | B11
58 | 840 nM | B12
59 | 4000 nM | B13

What follows are binders tested against T6, FcγRIIb extracellular domain with … (assay: SPR, antibody captured, FcgR analyte).

Row | Kd | Binder
60 | 1.9 nM | B10
61 | 9 nM | B14
62 | 1.2 nM | B12
63 | 3.8 nM | B13

These binders were tested against T1, FcγRIIa R type extracellular domain, … (assay: SPR, bound amount per captured antibody).

Row | Relative FcgRIIaR-binding Activity | Binder
64 | 8.3 % of IL6R-G1d/IL6R-L | B1
65 | 6.3 % of IL6R-G1d/IL6R-L | B2
66 | 11.9 % of IL6R-G1d/IL6R-L | B3
67 | 8.1 % of IL6R-G1d/IL6R-L | B4
68 | 12.5 % of IL6R-G1d/IL6R-L | B5
69 | 7.2 % of IL6R-G1d/IL6R-L | B6
70 | 10 % of IL6R-G1d/IL6R-L | B7
71 | 11 % of IL6R-G1d/IL6R-L | B8
72 | 14.3 % of IL6R-G1d/IL6R-L | B9

The binders below were run against T3, FcγRIIb extracellular domain, His tag (assay: SPR, bound amount per captured antibody).

Row | Relative FcgRIIb-binding Activity | Binder
73 | 108 % of IL6R-G1d/IL6R-L | B1
74 | 104 % of IL6R-G1d/IL6R-L | B2
75 | 165 % of IL6R-G1d/IL6R-L | B3
76 | 85.8 % of IL6R-G1d/IL6R-L | B4
77 | 169 % of IL6R-G1d/IL6R-L | B5
78 | 99.5 % of IL6R-G1d/IL6R-L | B6
79 | 127 % of IL6R-G1d/IL6R-L | B7
80 | 126 % of IL6R-G1d/IL6R-L | B8
81 | 173 % of IL6R-G1d/IL6R-L | B9

These binders were tested against T4, FcγRIIa R type extracellular domain … (assay: SPR; KD of IL6R-B3/IL6R-L divided by KD of variant).

Row | Relative FcgRIIaR-binding Activity | Binder
82 | 14.6 | B10
83 | 27.8 | B12

The binders below were run against T6, FcγRIIb extracellular domain with … (assay: SPR; KD of IL6R-B3/IL6R-L divided by KD of variant).

Row | Relative FcgRIIb-binding Activity | Binder
84 | 1670 | B10
85 | 2690 | B12
